Laboratory results as given in the nanobody polyreactivity screen of Harvey et al. (2022).

Experiment: yeast display, Sf9 membrane polyspecificity reagent, FACS + sequencing; frameworks hold sequencing errors
Outline: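 Using colony PCR, genes from sorted yeast display clones were amplified, then sequenced on MiSeq at 2 × 250 and filtered by CDR length. The clones had been stained with 10% biotinylated, detergent-solubilized Sf9 membrane reagent for 1 hour at 4 °C and sorted by FACS into low and high (top ~1%) gates on anti-HA and streptavidin fluorescence. Polyreactivity labels come from the gate of origin.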

| Sequence | polyreactivity (PSR sort gate) |
| --- | --- |
| QVQLVESGGGLVQAGGSLRLSCAASGSTFDRYGMGWYRQAPGKERELVAAITWSVGSTYYADSVKGRFTISRDNAKNTVYLQMNSLKPEDTAVYYCNAGVLGVYTSYNGDDYWGQGTQVTVST | low polyreactivity |
| QVQLVESGGGLVQAGGILRLSCAASGSIYSGYAMGWYIQAPAKEREFVAAITSTSGSTYYADSVKVRFTISRDNAKNSVYLQMNSLKPEDTAVYYWAGYRYRYYSYDSWGQGTHVTVSS | high polyreactivity |
| QVQLVESGGGLVQAGGSLRLSCAASGRIFRWYAMGWYRQAPGKERELVATISSTGGSTYYADSVKGRFTISRDNAKNTDYLQMNSLKPEDTAVYDCNAVVYGIFLYAWYDYWGQGTQVTVSS | low polyreactivity |
| QVQLVESGGGLVQAGGSLRLSCAASGFTFGKYAMGWYRQAPGKERELVAAITWSGGRTYYADSVKGRFTISRDNAKNTVYLQMNSLKPEDTAVYYCNKVYLYSSLARPYDYWGQGTQVTVSS | high polyreactivity |
| QVQLVESGGGLVQAGGSLRLSCAASGSTLYPNPMGWYRQAPGTERELVAAISGTGGGTYYADSVKGRFTISRDNAKNTVYLQMNSLKPEDTAVYYCAADYVFAWWGDYYWGQGTQVTVSS | high polyreactivity |
| QVQLVESGGGLVQAGGSLRLSSASSGRIFPDNTMGWYRQAPGKERELVAVITYSGGSTYYADSVKGRFTISRDNAKNTVYLQMNSLKPDDTAVYYCAARDYYIWFAEVDYWGQGTQVTVSS | low polyreactivity |
| QVQLVESGGGLVQAGGSLRLSCAASGFIFGYNAMGWYRQAPGKERELVAAITWSGGSTYYADSVKGRFTISRDNAKNTVYLQMNSLKPEDTAVDYCNWPGEGDYWGQGTQVTVSS | low polyreactivity |
| QVQLVESGGGLVQAGGSLRLSCAASGSIFIRNAMGWYRQAPGKERELVAAISTIGGRTYYADSVKGRFTISRDNAKNTVYLQMNSLNPEDTAVYYCAAEQGTPSTNWYDYWGQGTQVTVSS | low polyreactivity |
| QVQLVESGGGLVQAGGSLRLSCAASGSIFGTYAMGWYRQAPGKERELVARISGGGSTYYADSVKGRFTISRDNAKNTVYLQMNSLKPEDTAVYYCNVRKWAYWSHAIIYNYWGQGTQVTVSS | high polyreactivity |
| QVQLVESGGGLVQAGGSLRLSCAASGSTFGNNTMGWYRQAPGKEREFVAAITESGGGTYADSVKGRFTISRDNAKNTVYLQMNSLKPEDTAVYYCAAVWYIWPFAFYYWGQGTQVTVSS | high polyreactivity |
| QVQLVESGGGLVQAGGSLRLICAASGSIFHRYTMGWYRQAPGKERELVAAINYSGSTTHYADSVKGRFTISRDNAKNTVYLQMNSLKPEDTAVYYCAAGSTRWYPTRVRYDYWGQGTQVTVSS | low polyreactivity |
| QVQLVESGGGLVQAGGSLRLSCAASGRIFVPNAMGWYRPAPGKERELVAAISLRGGSTYYADSVKGRFTISRDNAKYTVYLQMNSLKPEDTAVYYCGWAYRYPHDYWGQGTQVTVSS | high polyreactivity |
| QVQRVDSGGGLVQAGGSLRLTCAASGSTFDKYAMGWYRQAPGKERELVAAISLSGGSTYYADSVKGRFTISRDNAKNTVYLQMNSLKPEDTAVYYCNTPPSRYVRYGIYRYDYWGQGTQVTVSS | high polyreactivity |
| QVQLVESGGGLVQAGGSLRLSCAACGSIFRPNAMGWYRQAPGKERELVAAITWIAGGTYYADSVKGRFTISRDNAKNTVYLEMNSLKPEDTAVYYCAARWYFQTAVGRYYHYDYWGQGTQVTVSS | high polyreactivity |
| QVQLVESGGGLVQAGGSLRLSCAASGSIFWVNAMGWYRQAPGKERELVAAITWSAGSTYYADSVKGRFTISRDNAKNTVYLQMNSLKPEDTAVYYCAAGGAWYYWTLDYWGQGTQVTVSS | low polyreactivity |
| QVQLVESCGGLVQAGGSLRLSCAASGFTFRNYVMGWYRQAPGKERELVAAISSTGGSTYYADSVKGRFTISRDNAKNTVYLQMNSLKPEDTAVYYCAARYVVQWPRYGFDYWGQGTQVTVSS | high polyreactivity |
| QVQLVESGAGLVQAGGSLRLSCAASGPILRTYAKGWYRQAPGKERELVAAISRSGGSSYYADSVKGRFTLSRDNAKNTVYLLMNSLKPEDTAVYYCNKAYGGRGYKYEYWGQGSQVTVSS | high polyreactivity |
| QVQLVESGGGIVQAGGSLRLSCAASGGTFTRYAMGWYRQAPGKEREFVAAISGSGGSTYYADSVKGRFTISRDNAKNTVYLQMNSLKPVDTAVYYCNKVPVYPPSYYWGQGTQVTVSS | low polyreactivity |
| QVQLVESGGGLVHAGGSLRLSCAPSGRTFPRYAMGWYRQAPGKERELVAAISVRAGITYYADSVKGRFTISRDNAKNTVYLQMNSLKPEDTAVYYCDKEHSSTSYDEGDYWGQGTQVTVSS | low polyreactivity |
| QVQLVESGGGLVQAGGNLRLSCAASGFIFTRYAMGWYRPAPGKERELVAAISTSGDRTYYADSVKGRFTISRDNAKNTVYVQMHSLKPEDTAVYFCAVVRRRSVGRYVYWGQGTQVTVSS | high polyreactivity |
| QVQLVDSGGGLVQAGGSLRLSCAAYGSNLYYAMGWYIQAPGKERELVATITRGGSTYYADSVKGRFTISRDNAKNTVYLQMNSLKPEDTAVYYCAARRAVRVGYYWHDISSYDYWGQGTQVTVSS | low polyreactivity |
| QVQLVESGGGLVQAGGSLRLSCAASGFTFIHYGMGWYRQAPGKERELVAAITWRGDRTYADSVKGRFTISRDNAKNTVYLQMNSLKPEDTAVYYCAVGFYYFSSWYSYDYWGQGTQVTVSS | high polyreactivity |

| Sequence | polyreactivity (PSR sort gate) |
| --- | --- |
| QVQLVESGGGLVQAGGSLRLSCAASGSIFTPYAMGWYRQAPGKERELVAAITSGGSTYADSVKGRFTISRDNAKNTVYLQMNSLKPEDTAVYYCAADRSYVYAGADMYYWGQGTQVTVSS | low polyreactivity |
| QFQLVESGGGLVQAGGSLRLSCAASGRIFSHYAMGCYRQAPGKERELVAAISSGGITYYADSVNGRFTISRDNAKNTVYLQRNSLKPEDTAVYYCAAVRRRGTTYDYWGQGTQVTVSS | high polyreactivity |
| QVQLVESGGGLVQAGGSLRLSCAASGVIFEYTAMGGYRQAPGKERELVAAITSSGGSTYYADSVKGRFTISRDKAKNTVYLQMNSLKPEDTAVYYCARVRRSAYYQDYYSWGQGTQVTVSS | high polyreactivity |
| QVQHVESGGGLVQAGGSLRLSCAASGSIFTVNAMGWYRQAPGKERELVAAIDGSSGSTNYADSVKGRFTISRDNAKNTVYLQMNSLKPEDTAVYYCAADWSYEYGYWGQGTQVTVSS | low polyreactivity |
| QVQLVESGGGLVQAGGSLRLSCASSGSTWWYAMGWYRQAPGKEMELVATISYSGGSTYYADSVKGRFTISRDNAKNSVYLQMNSLKPEDTAVYYCAAKKWTAVRRDFWGQGTQVTVSS | high polyreactivity |
| QVQRVESGGGLVQAGGSLRLSCAASRITFTVNAMGWYRQAPGKERELVAAISWSGGSTYYADSVKGRFTISRDIAKNTVYLQMNSLKPEDTAVYYCNAVLYRFAYNYWGQGTQVTVSS | low polyreactivity |
| QVQLVESGGGLVQAGGSLRLSCAASGLILTRYAMGWYRQAPGKERELVAAITKNGGSTYYADSVKGRFTISRDNAKNTVYLLMNSLKPEDTAVYYCNVCPRRVDRSRAASSDYDYWGQGSQVTVSS | high polyreactivity |
| QVQLVESGGGLVQAGGSLRLSCAASGSTFTGYAMGWYRQAPGKERELVAAISISGGRTFYADSVKGRFTISRDNAKNTVYLQMNSLKPEDTAVYYCAAYLRGSKYSFDYWGQGTQVTVSS | high polyreactivity |
| QVQLVESGGGLVQAGGSLRLSCAATGRTFSTNAMGGSRQAPGKERELVAAITSSGGRTYYADSVKGRFTISRDNAKNTVYLQMNSLKPEDTAVYYCAAYPWYYRGYWFGYWGQGTQVTVSS | high polyreactivity |
| QVQLVESGGGLVQAGGSLRLSCAASGSIFGWNAMGWYRQAPGKERELVAAISSGGSTYYADSVKGRFTISRDNAKNTVYLQMNSLKPQDTAVYYCNAFFQYYDYWGQGTQVTVSS | low polyreactivity |
| QVQLVESGGGLVQAGGSLRLSCAASGSTMAPYAMGWYRQAPGTERELVASINWGGTTTYYADSVKGRFTISRDNAKNTVYLQMNSLKPEDTAVYYCAALGLRWGRSGYYYEYYYWGQGTQVTVSS | high polyreactivity |
| QVQLVESGGGLVQAGGSLRLSWAASGSTFVVNAMGWYRQAPGKERELVAAITQDGDGTYYADSVKGRFTISRDNAKNTVYLQMNSLKPEDTAVYYCAAYPFYGPYDEFDYWGQGTEVTVSS | low polyreactivity |
| QVQLVESGGGLVQAGGSLRISCAASGLIFGRYAMGWYRQAPGKERELVAAISSSGVRTYYADSVKGRFTISRDNAKNTVYLQMNSLKPEDTAVYYCAAAYWSSREDTVIKRYYWGQGTQVTVSS | high polyreactivity |
| HVQLVESGGGLVQAGGSLRLSCAASGFIFVFYDMGWYRPAPGKERELVAGITRNDGSTYYADSVKGRFKISRDNAKNTVYLQMNSLKPEDTAVYYCAADRVRRNDKLAYDYWGQGTQVTVSS | low polyreactivity |
| QVQLVESGGGLVQAGGSLSLSCAASGSISDVYPMGGYRQAPRKERELVAAITSGASTYYADSVKGRFTISRDNAKNTVYLQLNSLKTEDTAVYYCAAGYSDWYYADYNSWGQGTQVTVSS | low polyreactivity |
| QVQHVESGGGLVQAGGSLRLSCAASGYTFGGNAMGWYRQAPGKERELVAAISSGGSTNYADSVKGRFTISRDNAKNTVYLQMNSLKPEDTAVYYCNKRGYYYWSGQDVASYDYWGQGTQLTVSS | low polyreactivity |
| QVQLVESGGGLVQAGASLRLSCAASGSIFKDNAMGWYRQAPGKERELVAAISWNGGSTYYADSVKGRFTISRDNAKNTVYLHMNSLKPEDTAVYYCATRIYGWSFGSWYKYDYWGQGTQVTVSS | low polyreactivity |
| QVQLVESGGGLVQAGGSLRLSCAASGSTFSTNAMGWYRQAPGKERDLVAAISRSGGSTYYADTVKRRFTISRDIAKITVYLQMNSLKPEVSAVYYCARYSYRGTNVSYDYWGQGTQVTVSS | high polyreactivity |
| QVQHVESGGGLVQAGGSLRLSCAASGFTFPGYAMGWYRQAPGKERELVAAISSSGGRTNYADSVKGRFTISRDNAKNTVYLQMNSLKPEDTAVYYCKAVRTVRSYLQLTRHLVYWGQGTQVTVSS | high polyreactivity |
| QVQLVESGGGLVQAGGSLRLSCAASGRIFSKNAMGWYRQAPGKERELVAAISSRGGSTYYADSVKGRFTISRDNAKNTVYLQMNSLKPEDTAVYYCAAGNGAYNYWCRYGYWGQGTQVTVSS | high polyreactivity |
| QVQLVESGGGIVQAGGSLRLSCAAAGFTFWQYAMGWYRQAPGKERELVAAITWDGGSTYYADSVKGRFTISRDYAKNTVYLQMNSLKPEDTAVYYCAKLFGGTYYEYDYWGQGTQVTVSS | low polyreactivity |
